{"source": "patent US20230002480A1", "assay_in_all_cases": "cell-based or functional assay", "key": {"[1]": {"molecular_target": "HIV-1 Env of pseudovirus REJO4541.67 (HIV-1)"}, "[2]": {"molecular_target": "HIV-1 Env of pseudovirus 6545.v4.c1 (clade AC) (HIV-1)"}, "[3]": {"molecular_target": "HIV-1 Env of pseudovirus 6811.v7.c18 (clade CD) (HIV-1)"}, "[4]": {"molecular_target": "HIV-1 Env of pseudovirus 89-F1_2_25 (clade CD) (HIV-1)"}, "[5]": {"molecular_target": "HIV-1 Env of pseudovirus A07412M1.vrc12 (clade D) (HIV-1)"}, "[6]": {"molecular_target": "HIV-1 Env of pseudovirus X1254_c3 (clade G) (HIV-1)"}, "[7]": {"molecular_target": "HIV-1 Env of pseudovirus 3301.v1.c24 (clade AC) (HIV-1)"}, "[8]": {"molecular_target": "HIV-1 Env of pseudovirus 231966.c02 (clade D) (HIV-1)"}, "[9]": {"molecular_target": "HIV-1 Env of pseudovirus 3415.v1.c1 (HIV-1)"}, "[10]": {"molecular_target": "HIV-1 Env of pseudovirus CNE5 (clade CRF01_AE) (HIV-1)"}, "[11]": {"molecular_target": "HIV-1 Env of pseudovirus 3817.v2.c59 (clade CD) (HIV-1)"}, "[12]": {"molecular_target": "HIV-1 Env of pseudovirus 6952.v1.c20 (clade CD) (HIV-1)"}, "[13]": {"molecular_target": "HIV-1 Env of pseudovirus 3103.v3.c10 (clade ACD) (HIV-1)"}, "[14]": {"molecular_target": "HIV-1 Env of pseudovirus 231965.c01 (clade D) (HIV-1)"}, "[15]": {"molecular_target": "HIV-1 Env of pseudovirus 3016.v5.c45 (clade D) (HIV-1)"}, "[16]": {"molecular_target": "HIV-1 Env of pseudovirus 6540.v4.c1 (clade AC) (HIV-1)"}, "[17]": {"molecular_target": "HIV-1 Env of pseudovirus X1632_S2_B10 (clade G) (HIV-1)"}, "[18]": {"molecular_target": "HIV-1 Env of pseudovirus 6041.v3.c23 (clade AC) (HIV-1)"}, "[19]": {"molecular_target": "HIV-1 Env of pseudovirus 6480.v4.c25 (clade CD) (HIV-1)"}, "[20]": {"molecular_target": "HIV-1 Env of pseudovirus X2131_C1_B5 (clade G) (HIV-1)"}, "[21]": {"molecular_target": "HIV-1 Env of pseudovirus 0815.v3.c3 (clade ACD) (HIV-1)"}, "[22]": {"molecular_target": "HIV-1 Env of pseudovirus Q259.d2.17 (HIV-1)"}, "[23]": {"molecular_target": "HIV-1 Env of pseudovirus Q23.17 (HIV-1)"}, "[24]": {"molecular_target": "HIV-1 Env of pseudovirus P1981_C5_3 (clade G) (HIV-1)"}, "[25]": {"molecular_target": "HIV-1 Env of pseudovirus HIV-0013095-2.11 (HIV-1)"}}}
{"substance": "10-1074 (antibody)", "values": [{"measurement": "IC50, titer in TZM.bl cells", "setting": "[1]", "result": "> 50", "unit": "µg/mL"}, {"measurement": "IC80, titer in TZM.bl cells", "setting": "[1]", "result": "> 50", "unit": "µg/mL"}, {"measurement": "IC50, titer in TZM.bl cells", "setting": "[2]", "result": "> 50", "unit": "µg/mL"}, {"measurement": "IC80, titer in TZM.bl cells", "setting": "[2]", "result": "> 50", "unit": "µg/mL"}, {"measurement": "IC50, titer in TZM.bl cells", "setting": "[3]", "result": 0.002, "unit": "µg/mL"}, {"measurement": "IC80, titer in TZM.bl cells", "setting": "[3]", "result": 0.01, "unit": "µg/mL"}, {"measurement": "IC50, titer in TZM.bl cells", "setting": "[4]", "result": "> 50", "unit": "µg/mL"}, {"measurement": "IC80, titer in TZM.bl cells", "setting": "[4]", "result": "> 50", "unit": "µg/mL"}, {"measurement": "IC50, titer in TZM.bl cells", "setting": "[5]", "result": "< 0.001", "unit": "µg/mL"}, {"measurement": "IC80, titer in TZM.bl cells", "setting": "[5]", "result": 0.048, "unit": "µg/mL"}, {"measurement": "IC50, titer in TZM.bl cells", "setting": "[6]", "result": 0.089, "unit": "µg/mL"}, {"measurement": "IC80, titer in TZM.bl cells", "setting": "[6]", "result": 0.297, "unit": "µg/mL"}, {"measurement": "IC50, titer in TZM.bl cells", "setting": "[7]", "result": 0.013, "unit": "µg/mL"}, {"measurement": "IC80, titer in TZM.bl cells", "setting": "[7]", "result": 0.042, "unit": "µg/mL"}, {"measurement": "IC50, titer in TZM.bl cells", "setting": "[8]", "result": "> 50", "unit": "µg/mL"}, {"measurement": "IC80, titer in TZM.bl cells", "setting": "[8]", "result": "> 50", "unit": "µg/mL"}, {"measurement": "IC50, titer in TZM.bl cells", "setting": "[9]", "result": "> 50", "unit": "µg/mL"}, {"measurement": "IC80, titer in TZM.bl cells", "setting": "[9]", "result": "> 50", "unit": "µg/mL"}, {"measurement": "IC50, titer in TZM.bl cells", "setting": "[10]", "result": "> 50", "unit": "µg/mL"}, {"measurement": "IC80, titer in TZM.bl cells", "setting": "[10]", "result": "> 50", "unit": "µg/mL"}, {"measurement": "IC50, titer in TZM.bl cells", "setting": "[11]", "result": 3.15, "unit": "µg/mL"}, {"measurement": "IC80, titer in TZM.bl cells", "setting": "[11]", "result": 14.9, "unit": "µg/mL"}, {"measurement": "IC50, titer in TZM.bl cells", "setting": "[12]", "result": 0.037, "unit": "µg/mL"}, {"measurement": "IC80, titer in TZM.bl cells", "setting": "[12]", "result": 0.138, "unit": "µg/mL"}, {"measurement": "IC50, titer in TZM.bl cells", "setting": "[13]", "result": 0.037, "unit": "µg/mL"}, {"measurement": "IC80, titer in TZM.bl cells", "setting": "[13]", "result": 0.101, "unit": "µg/mL"}, {"measurement": "IC50, titer in TZM.bl cells", "setting": "[14]", "result": "> 50", "unit": "µg/mL"}, {"measurement": "IC80, titer in TZM.bl cells", "setting": "[14]", "result": "> 50", "unit": "µg/mL"}, {"measurement": "IC50, titer in TZM.bl cells", "setting": "[15]", "result": "> 50", "unit": "µg/mL"}, {"measurement": "IC80, titer in TZM.bl cells", "setting": "[15]", "result": "> 50", "unit": "µg/mL"}, {"measurement": "IC50, titer in TZM.bl cells", "setting": "[16]", "result": "> 50", "unit": "µg/mL"}, {"measurement": "IC80, titer in TZM.bl cells", "setting": "[16]", "result": "> 50", "unit": "µg/mL"}, {"measurement": "IC50, titer in TZM.bl cells", "setting": "[17]", "result": "> 50", "unit": "µg/mL"}, {"measurement": "IC80, titer in TZM.bl cells", "setting": "[17]", "result": "> 50", "unit": "µg/mL"}, {"measurement": "IC50, titer in TZM.bl cells", "setting": "[18]", "result": "> 50", "unit": "µg/mL"}, {"measurement": "IC80, titer in TZM.bl cells", "setting": "[18]", "result": "> 50", "unit": "µg/mL"}, {"measurement": "IC50, titer in TZM.bl cells", "setting": "[19]", "result": 0.009, "unit": "µg/mL"}, {"measurement": "IC80, titer in TZM.bl cells", "setting": "[19]", "result": 0.041, "unit": "µg/mL"}, {"measurement": "IC50, titer in TZM.bl cells", "setting": "[20]", "result": 0.016, "unit": "µg/mL"}, {"measurement": "IC80, titer in TZM.bl cells", "setting": "[20]", "result": 0.064, "unit": "µg/mL"}, {"measurement": "IC50, titer in TZM.bl cells", "setting": "[21]", "result": 0.03, "unit": "µg/mL"}, {"measurement": "IC80, titer in TZM.bl cells", "setting": "[21]", "result": 0.138, "unit": "µg/mL"}, {"measurement": "IC50, titer in TZM.bl cells", "setting": "[22]", "result": "> 50", "unit": "µg/mL"}, {"measurement": "IC80, titer in TZM.bl cells", "setting": "[22]", "result": "> 50", "unit": "µg/mL"}, {"measurement": "IC50, titer in TZM.bl cells", "setting": "[23]", "result": 0.006, "unit": "µg/mL"}, {"measurement": "IC80, titer in TZM.bl cells", "setting": "[23]", "result": 0.021, "unit": "µg/mL"}, {"measurement": "IC50, titer in TZM.bl cells", "setting": "[24]", "result": 0.005, "unit": "µg/mL"}, {"measurement": "IC80, titer in TZM.bl cells", "setting": "[24]", "result": 0.017, "unit": "µg/mL"}, {"measurement": "IC50, titer in TZM.bl cells", "setting": "[25]", "result": "> 50", "unit": "µg/mL"}, {"measurement": "IC80, titer in TZM.bl cells", "setting": "[25]", "result": "> 50", "unit": "µg/mL"}]}
